Test results: patent publication US20130177660A1 (NATIONAL UNIVERSITY CORPORATION NAGOYA UNIVERSITY, published 2013)

Biological target: T1, Flag-RFP (Flag-tagged RET finger protein) (Homo sapiens, UniProt P14373 1-513)
T1 construct: Expressed by transient transfection in HEK293 cells and tested in cell lysates by co-immunoprecipitation; also called TRIM27; pFlag-RFP; not shown: Flag tag from the pFlag vector
T1 sequence: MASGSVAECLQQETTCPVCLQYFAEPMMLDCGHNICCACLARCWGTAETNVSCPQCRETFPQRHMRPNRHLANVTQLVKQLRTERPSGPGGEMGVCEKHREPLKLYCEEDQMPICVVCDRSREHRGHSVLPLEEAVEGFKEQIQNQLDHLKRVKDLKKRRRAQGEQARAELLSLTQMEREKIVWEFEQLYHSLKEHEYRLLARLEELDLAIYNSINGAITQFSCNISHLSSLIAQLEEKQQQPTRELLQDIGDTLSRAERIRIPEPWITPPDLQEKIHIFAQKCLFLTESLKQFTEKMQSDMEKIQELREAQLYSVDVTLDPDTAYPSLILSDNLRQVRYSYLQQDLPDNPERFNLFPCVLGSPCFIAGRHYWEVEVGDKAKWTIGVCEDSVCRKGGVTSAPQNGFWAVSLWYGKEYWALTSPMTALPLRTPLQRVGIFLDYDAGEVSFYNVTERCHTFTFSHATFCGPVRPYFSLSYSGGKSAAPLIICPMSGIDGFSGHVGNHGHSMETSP
Assay: co-IP from HEK293 cells co-transfected with GFP-RFP and Flag-RFP; anti-Flag IP, anti-GFP blot
Text: FIG. 7 RFP Oligomerization (a) RFP forms homo-oligomer, HEK293 cells were co-transfected with GFP-RFP and Flag-RFP, and immunoprecipitated with anti-Flag antibody followed by immunoblotting with anti-Flag and anti-GFP antibodies. Anti-HA antibody was used as mock. WCL: whole cell lysates. (b) Ring-B-box and Coiled-coil domains, but not Rfp domain, of RFP were required for its oligomerization. HEK293 cells were co-transfected with GFP-RFP and Flag tagged RFP deletion constructs, and immunoprecipitated with anti-Flag antibody. The pFlag vector was used as control. Arrow heads indicate Flag-tagged RFP constructs.

B1: GFP-RFP (other)
chain: T1 sequence
notes: RFP cDNA inserted into the pEGFP-C1 vector; also called RFP in pEGFP-C1; not shown: GFP (EGFP of the pEGFP-C1 vector) and linker
binding result: binds
